In US5371006:

Test system: NotI restriction endonuclease (Nocardia otitidis-caviarum)
Assay: cleavage_in_vitro
Details: endonuclease contamination test; 200 units, 4 h, 37 C, NEBuffer 3 + BSA

Substance: phiX174 RFI DNA
- activity (% converted to RF II): < 5
